In the RNAGym collection of RNA variant scans (doi:10.7554/elife.80360):

B1: Hairpin Ribozyme (parent)
chain: GUCCUCUUUCACGUGCGCGUGAAAGAGAGAAGUGAACCAGAGAAACACACGUUGUGGUAUAUUACCUGGUA

Variants of: B1
Test: self-cleavage, relative activity (ratio to wild type); higher = more cleavage; co-transcriptional

Variant | self-cleavage
GUCCUCUUUCACGUGCGCGUGAAAGAUAGAAGUGAACCAGAGAAACACACGUUGUGGUUUAUUACCUGGUA [G27U A59U] | 0.146
GUCCUCUUUAACGUGCGCCUGAAAGAGAGAAGUGAACCAGAGAAACACACGUUGUGGUAUAUUACCUGGUA [C10A G19C] | 0.509
GUCCUCUUUCACGUGCGCGUGAAAGAGAAAAGUGAACCAGAGAAACACACGUUGUGGUAUAUUCCCUGGUA [G29A A64C] | 0.115
GUCCUCUUUCACGUGCGCGUGAAAGAGAGUAGUGAACCAGAGCAACACACGUUGUGGUAUAUUACCUGGUA [A30U A43C] | 0.117
GUCCUCUUUCACGUGCGCGUGAAAGGGAGAAGUGAACCAGAGAAACACAAGUUGUGGUAUAUUACCUGGUA [A26G C50A] | 0.262
GUCCUCUUUCACGUGGGCGUGAAAGAGAGAAGUCAACCAGAGAAACACACGUUGUGGUAUAUUACCUGGUA [C16G G34C] | 1.22
GUCCUCUUUCACGGGCGCGUGAAAGAGAGAAGUGAACCAGAGAAACACACGUUGUGGUAUAUUACCUUGUA [U14G G68U] | 0.333
GUCCUCUUUCACGUGCGCGUGAAAGAGAGAAGUGAACCAGAGAAACACACGUUGUGGUAGAUUACAUGGUA [U60G C66A] | 0.0537
GUCCUCUUUCACGUGCGCGUGAAAGAGAGAAGUGAAACAGAGAAACACACGUUGUGGUAAAUUACCUGGUA [C37A U60A] | 0.303
GUCCUCUUUCACGUGCGCGUGAAAGAGAGAAGUGAACCAGAGAAACACACGUUAUGGUAUAUUACCUUGUA [G54A G68U] | 0.227
GUCCACUUUCGCGUGCGCGUGAAAGAGAGAAGUGAACCAGAGAAACACACGUUGUGGUAUAUUACCUGGUA [U5A A11G] | 0.324
GUCCUCUUUCACGUGCGCGUGAAAGAGAGUAAUGAACCAGAGAAACACACGUUGUGGUAUAUUACCUGGUA [A30U G32A] | 0.183
GUCCUCUUUCAAGUGAGCGUGAAAGAGAGAAGUGAACCAGAGAAACACACGUUGUGGUAUAUUACCUGGUA [C12A C16A] | 0.964
UUCCUCUUUCACGUGCGCGUGAAAGAGAGAAGUGAACCAGAGAAACACACGUUGUGGUAUAGUACCUGGUA [G1U U62G] | 0.163
GUCCUCUUUCACGUGCUCGUGAAAGAGAGAAGUGAACCAGAGACACACACGUUGUGGUAUAUUACCUGGUA [G17U A44C] | 0.152
GUCCUCUUUCACGUGCGCGUGAGAGAGAGAAGCGAACCAGAGAAACACACGUUGUGGUAUAUUACCUGGUA [A23G U33C] | 0.0496
GUCCUCUUUCACGUGCGCGUGAAAGAGAGAAGUGUACCAGAGAAACACACGGUGUGGUAUAUUACCUGGUA [A35U U52G] | 0.553
GUCCUCUUUCACGUGCGCGUGAAAGAGAGAAGUGAACCAGCGAAACACACGUUGUGGUAUAUGACCUGGUA [A41C U63G] | 0.102
GUCCUCUUACACGUGCGCGUGAAAGAGAGAAGUGAACCAGAGAAAAACACGUUGUGGUAUAUUACCUGGUA [U9A C46A] | 0.0884

Variant | self-cleavage
GUCCUCUUUCACGUGCGUGUGAAAGAGAGAAGUGAACCAGAGAAACACACGUUGUGGUAUAUUACCUCGUA [C18U G68C] | 0.221
GUCCUCUUUCACGUGCGCGCGACAGAGAGAAGUGAACCAGAGAAACACACGUUGUGGUAUAUUACCUGGUA [U20C A23C] | 0.648
GUCCUCUUUCACGUGCGCGUGAAAGACAGAAGUGAACCACAGAAACACACGUUGUGGUAUAUUACCUGGUA [G27C G40C] | 0.107
GUCCUCUUUCACGUACGCGUCAAAGAGAGAAGUGAACCAGAGAAACACACGUUGUGGUAUAUUACCUGGUA [G15A G21C] | 0.798
GUCCUCUUUCACGUGCGCGUGAAAGAGACAAGUGAACCAGAGAAACACACGUUGUGGUAUAUUAUCUGGUA [G29C C65U] | 0.135
GUCCUCUUUCACGUGCGCGUGAAAGAGAGAAUUGAACCAGAGACACACACGUUGUGGUAUAUUACCUGGUA [G32U A44C] | 0.112
GGCCUCUUUCACGUGCGCGUGAAAGAGAGAAGUGAACCAGAGAAACACACGUUGUGGUAUAUUACCUGGUU [U2G A71U] | 0.283
GUCCUCUUUCACGUGCGCGUGUAAGAGAGAAGUGAACCAGUGAAACACACGUUGUGGUAUAUUACCUGGUA [A22U A41U] | 1.14
GUCCUCUUUCUCGUGCGCGUGAAAGAGAGAAGUGAACCAGAGAAACACACGUUGUUGUAUAUUACCUGGUA [A11U G56U] | 0.131
GUCCUCUUUCACGUGCGCGUGAAAGAGAGAAGUGAACCAGAAAAACACACGCUGUGGUAUAUUACCUGGUA [G42A U52C] | 0.208
GUCCUCUUUCACGUGCGCGUGAAAGAAAGAAGUGAACCAGAUAAACACACGUUGUGGUAUAUUACCUGGUA [G27A G42U] | 0.147
GUCCUCUUUAACGUGCGCGUGAAAGAGAGAAGUGAACCAGAGAAACACACGUUGUGGUAUAUUACCUGUUA [C10A G69U] | 0.14
GUCCUCUUUCACGUGCGCGUGAAAGAGAGAAGUGAACCAGCGAAACACACGUUGUGGUAUAUUUCCUGGUA [A41C A64U] | 0.267
GUCCUCUUCCACGUGCGGGUGAAAGAGAGAAGUGAACCAGAGAAACACACGUUGUGGUAUAUUACCUGGUA [U9C C18G] | 0.56
GUCCUCUUUCCCGUGCGCGUGAAAGAAAGAAGUGAACCAGAGAAACACACGUUGUGGUAUAUUACCUGGUA [A11C G27A] | 0.403
GUCCUCUUUCACUUGCGCGUGAAAGAGAGAAGUGAACCAGAGAAACACCCGUUGUGGUAUAUUACCUGGUA [G13U A49C] | 0.117
GUCCUCUUUCACGUGCGCGUGAAAGACAGAAGGGAACCAGAGAAACACACGUUGUGGUAUAUUACCUGGUA [G27C U33G] | 0.0854
GUCCUCUUUCAGGUGCGCGUGAAAGAGAGAAGUGAACCAGAGAAACACACGUUGUGGGAUAUUACCUGGUA [C12G U58G] | 0.502
GUCCUCUUUCACCUGCGCGUGAAAGAGAGAAGUGAACCAGAGAAACACACGUUAUGGUAUAUUACCUGGUA [G13C G54A] | 0.368
